{
  "source": "the supplement of paper PMC9112550",
  "about": "“Optimization of the antimicrobial peptide Bac7 by deep mutational scanning” (BMC Biology, 2022);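 note: peptides expressed intracellularly from a pBAD plasmid library in pooled LB shake-flask culture, induced with 0.3% L-arabinose, DNA abundance read by NGS, three biological replicates, DESeq2 with apeglm shrinkage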",
  "data": [
    {"system": "Escherichia coli TOP10", "experiment": "shrunken log2 fold change of peptide-encoding DNA abundance (4.5 h post-induction vs induction); higher = less antimicrobial activity (less host growth inhibition)", "conditions": "time post-induction: 4.5 h; library: site-saturation at positions 5, 18, 19, 20", "values": [
      {"sequence": "RRIRGRPPRLPRPRPRPLVFPRP", "shrunken log2 fold change": 0.455},
      {"sequence": "RRIRGRPPRLPRPRPRPLVGPRP", "shrunken log2 fold change": 0.439},
      {"sequence": "RRIRGRPPRLPRPRPRPLVNPRP", "shrunken log2 fold change": 0.4},
      {"sequence": "RRIRGRPPRLPRPRPRPLWKPRP", "shrunken log2 fold change": 0.819},
      {"sequence": "RRIRGRPPRLPRPRPRPMCPPRP", "shrunken log2 fold change": 0.0883},
      {"sequence": "RRIRGRPPRLPRPRPRPMCVPRP", "shrunken log2 fold change": 0.723},
      {"sequence": "RRIRGRPPRLPRPRPRPMDVPRP", "shrunken log2 fold change": 0.265},
      {"sequence": "RRIRGRPPRLPRPRPRPMDYPRP", "shrunken log2 fold change": 0.0324},
      {"sequence": "RRIRGRPPRLPRPRPRPMIKPRP", "shrunken log2 fold change": 2.22},
      {"sequence": "RRIRGRPPRLPRPRPRPMIVPRP", "shrunken log2 fold change": 0.554},
      {"sequence": "RRIRGRPPRLPRPRPRPMIWPRP", "shrunken log2 fold change": 0.589},
      {"sequence": "RRIRGRPPRLPRPRPRPMLIPRP", "shrunken log2 fold change": 0.312},
      {"sequence": "RRIRGRPPRLPRPRPRPMLKPRP", "shrunken log2 fold change": 0.575},
      {"sequence": "RRIRGRPPRLPRPRPRPMMAPRP", "shrunken log2 fold change": 1.38},
      {"sequence": "RRIRGRPPRLPRPRPRPMMCPRP", "shrunken log2 fold change": 0.0367},
      {"sequence": "RRIRGRPPRLPRPRPRPMMFPRP", "shrunken log2 fold change": 0.69},
      {"sequence": "RRIRGRPPRLPRPRPRPMMGPRP", "shrunken log2 fold change": 0.409},
      {"sequence": "RRIRGRPPRLPRPRPRPMNAPRP", "shrunken log2 fold change": 0.493},
      {"sequence": "RRIRGRPPRLPRPRPRPMPYPRP", "shrunken log2 fold change": 0.0877},
      {"sequence": "RRIRGRPPRLPRPRPRPMQGPRP", "shrunken log2 fold change": 0.0711},
      {"sequence": "RRIRGRPPRLPRPRPRPMTKPRP", "shrunken log2 fold change": 0.524},
      {"sequence": "RRIRGRPPRLPRPRPRPMTYPRP", "shrunken log2 fold change": 0.274},
      {"sequence": "RRIRGRPPRLPRPRPRPMVMPRP", "shrunken log2 fold change": 0.342},
      {"sequence": "RRIRGRPPRLPRPRPRPMVVPRP", "shrunken log2 fold change": 0.434},
      {"sequence": "RRIRGRPPRLPRPRPRPMWDPRP", "shrunken log2 fold change": 0.639},
      {"sequence": "RRIRGRPPRLPRPRPRPNCFPRP", "shrunken log2 fold change": 0.268},
      {"sequence": "RRIRGRPPRLPRPRPRPNEAPRP", "shrunken log2 fold change": 1.22},
      {"sequence": "RRIRGRPPRLPRPRPRPNECPRP", "shrunken log2 fold change": 0.421},
      {"sequence": "RRIRGRPPRLPRPRPRPNEYPRP", "shrunken log2 fold change": 0.249},
      {"sequence": "RRIRGRPPRLPRPRPRPNFDPRP", "shrunken log2 fold change": 0.491},
      {"sequence": "RRIRGRPPRLPRPRPRPNFTPRP", "shrunken log2 fold change": 0.298},
      {"sequence": "RRIRGRPPRLPRPRPRPNGAPRP", "shrunken log2 fold change": 0.827},
      {"sequence": "RRIRGRPPRLPRPRPRPNGIPRP", "shrunken log2 fold change": 0.287},
      {"sequence": "RRIRGRPPRLPRPRPRPNGVPRP", "shrunken log2 fold change": -0.186},
      {"sequence": "RRIRGRPPRLPRPRPRPNGWPRP", "shrunken log2 fold change": 0.477},
      {"sequence": "RRIRGRPPRLPRPRPRPNLKPRP", "shrunken log2 fold change": 0.189},
      {"sequence": "RRIRGRPPRLPRPRPRPNLVPRP", "shrunken log2 fold change": 0.0862},
      {"sequence": "RRIRGRPPRLPRPRPRPNMHPRP", "shrunken log2 fold change": 0.563},
      {"sequence": "RRIRGRPPRLPRPRPRPNPFPRP", "shrunken log2 fold change": 0.189},
      {"sequence": "RRIRGRPPRLPRPRPRPNPWPRP", "shrunken log2 fold change": 0.454},
      {"sequence": "RRIRGRPPRLPRPRPRPNQQPRP", "shrunken log2 fold change": 0.0317},
      {"sequence": "RRIRGRPPRLPRPRPRPNRRPRP", "shrunken log2 fold change": 0.332},
      {"sequence": "RRIRGRPPRLPRPRPRPNSCPRP", "shrunken log2 fold change": 0.0941},
      {"sequence": "RRIRGRPPRLPRPRPRPNSNPRP", "shrunken log2 fold change": 0.0841},
      {"sequence": "RRIRGRPPRLPRPRPRPNVSPRP", "shrunken log2 fold change": -0.0528},
      {"sequence": "RRIRGRPPRLPRPRPRPNWAPRP", "shrunken log2 fold change": 0.363},
      {"sequence": "RRIRGRPPRLPRPRPRPNWKPRP", "shrunken log2 fold change": 0.332},
      {"sequence": "RRIRGRPPRLPRPRPRPNWRPRP", "shrunken log2 fold change": 0.595},
      {"sequence": "RRIRGRPPRLPRPRPRPNYRPRP", "shrunken log2 fold change": 0.0016},
      {"sequence": "RRIRGRPPRLPRPRPRPPDFPRP", "shrunken log2 fold change": 0.46},
      {"sequence": "RRIRGRPPRLPRPRPRPPDSPRP", "shrunken log2 fold change": 0.952},
      {"sequence": "RRIRGRPPRLPRPRPRPPEDPRP", "shrunken log2 fold change": 1.21},
      {"sequence": "RRIRGRPPRLPRPRPRPPETPRP", "shrunken log2 fold change": 1.24},
      {"sequence": "RRIRGRPPRLPRPRPRPPFRPRP", "shrunken log2 fold change": 0.681},
      {"sequence": "RRIRGRPPRLPRPRPRPPGEPRP", "shrunken log2 fold change": 1.14},
      {"sequence": "RRIRGRPPRLPRPRPRPPHDPRP", "shrunken log2 fold change": 1.27},
      {"sequence": "RRIRGRPPRLPRPRPRPPIKPRP", "shrunken log2 fold change": 0.403},
      {"sequence": "RRIRGRPPRLPRPRPRPPKRPRP", "shrunken log2 fold change": 0.701},
      {"sequence": "RRIRGRPPRLPRPRPRPPKSPRP", "shrunken log2 fold change": 0.616},
      {"sequence": "RRIRGRPPRLPRPRPRPPMTPRP", "shrunken log2 fold change": 0.895},
      {"sequence": "RRIRGRPPRLPRPRPRPPNSPRP", "shrunken log2 fold change": 0.301},
      {"sequence": "RRIRGRPPRLPRPRPRPPPPPRP", "shrunken log2 fold change": 1.54},
      {"sequence": "RRIRGRPPRLPRPRPRPPPWPRP", "shrunken log2 fold change": 1.41},
      {"sequence": "RRIRGRPPRLPRPRPRPPQTPRP", "shrunken log2 fold change": 1.31},
      {"sequence": "RRIRGRPPRLPRPRPRPPSVPRP", "shrunken log2 fold change": 0.645},
      {"sequence": "RRIRGRPPRLPRPRPRPPTKPRP", "shrunken log2 fold change": 0.968},
      {"sequence": "RRIRGRPPRLPRPRPRPPTPPRP", "shrunken log2 fold change": 1.22},
      {"sequence": "RRIRGRPPRLPRPRPRPPVIPRP", "shrunken log2 fold change": -0.0488},
      {"sequence": "RRIRGRPPRLPRPRPRPPVQPRP", "shrunken log2 fold change": 0.496},
      {"sequence": "RRIRGRPPRLPRPRPRPPWNPRP", "shrunken log2 fold change": 0.411},
      {"sequence": "RRIRGRPPRLPRPRPRPPYCPRP", "shrunken log2 fold change": 0.204},
      {"sequence": "RRIRGRPPRLPRPRPRPQCGPRP", "shrunken log2 fold change": 0.601},
      {"sequence": "RRIRGRPPRLPRPRPRPQDPPRP", "shrunken log2 fold change": 0.337},
      {"sequence": "RRIRGRPPRLPRPRPRPQDSPRP", "shrunken log2 fold change": 0.135},
      {"sequence": "RRIRGRPPRLPRPRPRPQEEPRP", "shrunken log2 fold change": 0.0943}
    ]}
  ]
}
